# B1: His-tagged maltose-binding protein (MBP) fused to DENV2 NS3 protein (His-MBP-NS3) (protein)
# chain: AGVLWDVPSPPPMGKAELEDGAYRIKQKGILGYSQIGAGVYKEGTFHTMWHVTRGAVLMHKGKRIEPSWADVKKDLISYGGGWKLEGEWKEGEEVQVLALEPGKNPRAVQTKPGLFKTNAGTIGAVSLDFSPGTSGSPIIDKKGKVVGLYGNGVVTRSGAYVSAIAQTEKSIEDNPEIE
# B2: refolded His-NS3 (protein)
# chain: B1 chain
# Target: His-tagged DENV2 NS2B protein (His-NS2B) (aa 48-95)
row,Protein,"transactivation (protease activity, Abz substrate at 200 µM; NS3 150 nM, NS2B 1 µM)"
1,B1,"Both soluble MBP-NS3 fusion protein and refolded NS3 can be trans-activated by soluble His-NS2B, and have similar activities"
2,B2,"Both soluble MBP-NS3 fusion protein and refolded NS3 can be trans-activated by soluble His-NS2B, and have similar activities"

# Source: US20190160028
